How the values were obtained:
[1] = substrate: O=C(O)c1ccccc1; test: GC-MS (SPME) of methyl benzoate formed, Michaelis-Menten fit; format: biochemical, Hedychium coronarium; conditions: SAM co-substrate (2 mM in standard assay), 100 mM KCl
[2] = substrate: O=C(O)c1ccccc1O; test: GC-MS (SPME) of methyl salicylate formed, Michaelis-Menten fit; format: biochemical, Hedychium coronarium; conditions: SAM co-substrate (2 mM in standard assay), 100 mM KCl; optimal reaction condition

B1: HcBSMT1 (Hedychium coronarium) (protein)
chain: MLPNTTIMEGEMSLKVEHALHMVGGTGETSYVANSRLQEKAIHQTKSLLAIAVEETYKALHSDQMVVVDLGCSSGPNTLLMLSHVLSVATKLPRRMELQFFLNDLPGNDFNCLFQSLEGFKKRLEGEIEGDLLVPYYVAGVAGSFYGRLFPRASVHLFHSSFCLMWLSQVPEGLKIEHGVPLNKGNIYWTETSLAKVEKAYQEQFQKDFSTFLKLRHTELNVGGRMVLVFVGRRKRTPGNGDFVHLYGLLGEALNSMVLEGIIQEEKVDTFNLPIYGASFEEVESVIHNEGVFDLDRAEIFESSWDPFDDSKDDIYAIPNYMRSGKNVANYIRAVVEPLIVHQFGTVILDDLFARYAHLVSKHLLKKKANHTILVFALKKKA
notes: full coding region in pET30a (EcoRI/NotI), E. coli Rosetta (DE3), Ni-NTA partially purified, His tag; 382 residues, 43 kDa predicted; Phe162, Val231, Tyr247
- Km ([1]; optimal condition (25 °C, optimum pH 6.0)): 1456.17 ± 163.13 µM

B2: HcBSMT2 (Hedychium coronarium) (protein)
chain: MGLKVEQALHMVGGSGETSYATNSRLQEKAIYRTKPVLATTIEEMYKGLLPEHMVVVDLGCSSGSNTFIVVSQVLDIIVELRRMMEMKKPLEVQFFLNDLPGNDFNYVFQSLDKFKNKVEEESKGELLVPYYVVGVAGSFYGRLFPCASVHFFHSSYCLMWLSQVPEELENDQGVSLNKGNIYWTETSSSQVEKAYREQYKKDFLTFLRSRYIELNIGGGMMLTFLGRRKRTPGHGDLCHLWRLLAEALNSMVLEEIIPEEKVSTFNLPIYGPSLEEVKSIIHHEGLFDLDRVEIFESSWDPFDDSGDDSFDLSNYTKSAKNVADCIRAVVEPLIVHQFGDVILDDLFTRYAQNVLKHLLKEKANHTILVIALKKRV
notes: full coding region in pET30a (EcoRI/NotI), E. coli Rosetta (DE3), Ni-NTA partially purified, His tag; 377 residues, 43 kDa predicted; Tyr157, Leu226, Trp242
- Km ([1]; optimal condition (25 °C, optimum pH 6.5)): 87.73 ± 7.03 µM
- Km [2]: 26.73 ± 3.88 µM
